Consider two proteins from publication PMC11088181, “Monocytes release cystatin F dimer to associate with Aβ and aggravate amyloid pathology and cognitive deficits in Alzheimer’s disease” (Journal of Neuroinflammation, 2024).

The data set deals with the molecule itself. Description: native gel or EMSA; nondenaturing gel (loading buffer without DTT) and western blot with anti-cystatin F; plasma diluted in PBS, or cultured monocytes.

B1: cystatin F in human plasma (natural protein, human (endogenous in plasma), UniProt O76096 20-145, looked up)
chain: GPSPDTCSQDLNSRVKPGFPKTIKTNDPGVLQAARYSVEKFNNCTNDMFLFKESRITRALVQIVKGLKYMLEVEIGRTTCKKNQHLRLDDCDFQTNHTLKQTLSCYSEVWVVPWLQHFEVPVLRCH
notes: cystatin F, secreted form in plasma; also called secreted cystatin F; cystatin F dimer; source: endogenous, human plasma (AD patients and controls)
In the case of B1, the stoichiometry N (in general, the number of molecules, sites or subunits per partner or assembly) was determined as 2.

B2: native cystatin F in cultured monocytes (natural protein, UniProt O76096 20-145, looked up)
chain: GPSPDTCSQDLNSRVKPGFPKTIKTNDPGVLQAARYSVEKFNNCTNDMFLFKESRITRALVQIVKGLKYMLEVEIGRTTCKKNQHLRLDDCDFQTNHTLKQTLSCYSEVWVVPWLQHFEVPVLRCH
notes: cystatin F of cultured monocytes; also called intracellular cystatin F protein; extracellular proteins; source: endogenous, cultured monocytes (intracellular and extracellular)
As to B2, the “stoichiometry N” value is 2.
